The assay concerns the target HLA-A*02:01 (Homo sapiens, UniProt P04439, D140Y/D185E/D98H/E176V/E277Q/G131W/G231S/I119V/I121R/I166T/I218V/L300P/L318F/N151K/N90K/P208A/P217A/Q86G/Q94H/R138H/R169H/T345S). The assay can be described thus: MHC binding assay: UV-ligand exchange with beta2m ELISA. Conditions: MHC class I binding score, yield of UV-ligand exchange. The source says: Candidate peptides for T cell based therapies according to the present invention were further tested for their MHC binding capacity (affinity). The individual peptide-MHC complexes were produced by UV-ligand exchange, where a UV-sensitive peptide is cleaved upon UV-irradiation, and exchanged with the peptide of interest as analyzed. Only peptide candidates that can effectively bind and stabilize the peptide-receptive MHC molecules prevent dissociation of the MHC complexes. To determine the yield of the exchange reaction, an ELISA was performed based on the detection of the light chain (β2m) of stabilized MHC complexes. The assay was performed as generally described in Rodenko et al. (Rodenko et al., 2006).
96 well MAXISorp plates (NUNC) were coated over night with 2 ug/ml streptavidin in PBS at room temperature, washed 4× and blocked for 1 h at 37° C. in 2% BSA containing blocking buffer. Refolded HLA-A*02:01/MLA-001 monomers served as standards, covering the range of 15-500 ng/ml. Peptide-MHC monomers of the UV-exchange reaction were diluted 100 fold in blocking buffer. Samples were incubated for 1 h at 37° C., washed four times, incubated with 2 ug/ml HRP conjugated anti-β2m for 1 h at 37° C., washed again and detected with TMB solution that is stopped with […]. Absorption was measured at 450 nm. Candidate peptides that show a high exchange yield (preferably higher than 50%, most preferred higher than 75%) are generally preferred for a generation and production of antibodies or fragments thereof, and/or T cell receptors or fragments thereof, as they show sufficient avidity to the MHC molecules and prevent dissociation of the MHC complexes.

Among the data in patent US10898561B2, “Peptides and combination of peptides for use in immunotherapy against pancreatic cancer and other cancers” (IMMATICS BIOTECHNOLOGIES GMBH, priority 2015, dated 2021) are Peptide exchange values, retold here.

For “1 (FLAQQESEI; listed as Homo sapiens) [compound 1]”, the Peptide exchange result is reported as “++ (20%-49% = ++)”.
As for “2 (SLQEEHVAVA; listed as Homo sapiens) [compound 2]”, the entry is “++ (20%-49% = ++)”.
Turning to “4 (SVDVSPPKV; listed as Homo sapiens) [compound 4]”, the Peptide exchange result is given as “++ (20%-49% = ++)”.
Take “5 (LLVDDSFLHTV; listed as Homo sapiens) [compound 5]”: the Peptide exchange entry was “+++ (50%-75% = +++)”.
In the case of “6 (VLISLKQAPLV; listed as Homo sapiens) [compound 6]” it was “++ (20%-49% = ++)”; in that of “7 (AQQESEIAGI; listed as Homo sapiens) [compound 7]”, “++ (20%-49% = ++)”; in that of “8 (IVDDLTINL; listed as Homo sapiens) [compound 8]”, “++ (20%-49% = ++)”.
Turning to “9 (FLFDGSANLV; listed as Homo sapiens) [compound 9]”, the Peptide exchange entry was “++ (20%-49% = ++)”.
Take “10 (FLVDGSSAL; listed as Homo sapiens) [compound 10]”: the Peptide exchange entry is “++ (20%-49% = ++)”.
As for “11 (FLYKIIDEL; listed as Homo sapiens) [compound 11]”, the Peptide exchange entry was “+++ (50%-75% = +++)”.
For “12 (FVSEIVDTV; listed as Homo sapiens) [compound 12]”, the Peptide exchange result is “+++ (50%-75% = +++)”.
As to “13 (LLAGQTYHV; listed as Homo sapiens) [compound 13]”, the Peptide exchange result is given as “++ (20%-49% = ++)”.
In the case of “14 (VLAKPGVISV; listed as Homo sapiens) [compound 14]” it was “++ (20%-49% = ++)”.
Turning to “15 (SLANNVTSV; listed as Homo sapiens) [compound 15]”, the Peptide exchange entry is given as “++ (20%-49% = ++)”.
For the substance “16 (APVNVTTEVKSV; listed as Homo sapiens) [compound 16]”, the Peptide exchange entry is “++ (20%-49% = ++)”.
As for “17 (FLKSGDAAIV; listed as Homo sapiens) [compound 17]”, the entry is “++ (20%-49% = ++)”; as for “18 (SLLDDELMSL; listed as Homo sapiens) [compound 18]”, “++ (20%-49% = ++)”; as for “22 (TLDGAAVNQV; listed as Homo sapiens) [compound 22]”, “++ (20%-49% = ++)”.
In the case of “24 (GLLEELVTV; listed as Homo sapiens) [compound 24]” it was “++ (20%-49% = ++)”.
“25 (SLKEEVGEEAI; listed as Homo sapiens) [compound 25]”: the Peptide exchange result is “++ (20%-49% = ++)”.
“26 (SLKEEVGEEAIV; listed as Homo sapiens) [compound 26]”: the Peptide exchange result was “++ (20%-49% = ++)”.
In the case of “27 (YLQGQRLDNV; listed as Homo sapiens) [compound 27]” it was “++ (20%-49% = ++)”; in that of “28 (YLQGQRLDNVV; listed as Homo sapiens) [compound 28]”, “++ (20%-49% = ++)”.
As for “29 (FLQEYLDAI; listed as Homo sapiens) [compound 29]”, the entry is “+++ (50%-75% = +++)”.
With “30 (VVDEGPTGV; listed as Homo sapiens) [compound 30]”, the Peptide exchange result is given as “++ (20%-49% = ++)”.
For “31 (SLAAAAGKQEL; listed as Homo sapiens) [compound 31]”, the Peptide exchange entry was “++ (20%-49% = ++)”.
On to “32 (SLAAAAGKQELA; listed as Homo sapiens) [compound 32]”, for which the Peptide exchange result is “+ (<20% = +)”.
Regarding “33 (SLDSRLELA; listed as Homo sapiens) [compound 33]”, the Peptide exchange entry is recorded as “++ (20%-49% = ++)”.
Consider “35 (VMDSGDGVTHTV; listed as Homo sapiens) [compound 35]”, for which the Peptide exchange result is recorded as “++ (20%-49% = ++)”.
Take “38 (NLVEKTPALV; listed as Homo sapiens) [compound 38]”: the Peptide exchange result is reported as “+++ (50%-75% = +++)”.
Regarding “39 (TLLSNLEEA; listed as Homo sapiens) [compound 39]”, the Peptide exchange result is “++ (20%-49% = ++)”.
For the substance “40 (FILDSAETTTL; listed as Homo sapiens) [compound 40]”, the Peptide exchange entry is “++ (20%-49% = ++)”.
“41 (FLLDGSEGV; listed as Homo sapiens) [compound 41]”: the Peptide exchange entry is reported as “+++ (50%-75% = +++)”.
Regarding “42 (KLVDKSTEL; listed as Homo sapiens) [compound 42]”, the Peptide exchange result is recorded as “++ (20%-49% = ++)”.
As to “43 (RLDQRVPQI; listed as Homo sapiens) [compound 43]”, the Peptide exchange result is “++ (20%-49% = ++)”.
Consider “44 (VLLDKIKNLQV; listed as Homo sapiens) [compound 44]”, for which the Peptide exchange result is on record as “++ (20%-49% = ++)”.
Consider “46 (TFAPVNVTTEVKSV; listed as Homo sapiens) [compound 46]”, for which the Peptide exchange entry is listed as “++ (20%-49% = ++)”.
Turning to “47 (KMDASLGNLFA; listed as Homo sapiens) [compound 47]”, the Peptide exchange result was “++++ (>=75% = ++++)”.
Consider “48 (ALTQTGGPHV; listed as Homo sapiens) [compound 48]”, for which the Peptide exchange result was “++ (20%-49% = ++)”.
Regarding “49 (NLKGTFATL; listed as Homo sapiens) [compound 49]”, the Peptide exchange entry is “+ (<20% = +)”.
In the case of “51 (ALMLQGVDL; listed as Homo sapiens) [compound 51]” it was “++ (20%-49% = ++)”; in that of “52 (RMVEEIGVEL; listed as Homo sapiens) [compound 52]”, “++ (20%-49% = ++)”; in that of “53 (SSFGGLGGGSV; listed as Homo sapiens) [compound 53]”, “+ (<20% = +)”.
Turning to “54 (VLLSEIEVA; listed as Homo sapiens) [compound 54]”, the Peptide exchange entry was “++ (20%-49% = ++)”.
In the case of “55 (YLDAMMNEA; listed as Homo sapiens) [compound 55]” it was “++ (20%-49% = ++)”; in that of “56 (GLLDYATGAIGSV; listed as Homo sapiens) [compound 56]”, “+++ (50%-75% = +++)”.
With “57 (FLGKVVIDV; listed as Homo sapiens) [compound 57]”, the Peptide exchange result is given as “++++ (>=75% = ++++)”.
As for “58 (GLAAFKAFL; listed as Homo sapiens) [compound 58]”, the entry is “+++ (50%-75% = +++)”; as for “59 (KLFNLSKEDDV; listed as Homo sapiens) [compound 59]”, “++ (20%-49% = ++)”.
“60 (YLEEDVYQL; listed as Homo sapiens) [compound 60]”: the Peptide exchange result is “++ (20%-49% = ++)”.
In the case of “64 (FLVSNMLLAEA; listed as Homo sapiens) [compound 64]” it was “+++ (50%-75% = +++)”; in that of “65 (YLYDSETKNA; listed as Homo sapiens) [compound 65]”, “++ (20%-49% = ++)”.
As to “66 (ALLSGLREA; listed as Homo sapiens) [compound 66]”, the Peptide exchange result is recorded as “+++ (50%-75% = +++)”.
For “67 (KMFFLIDKV; listed as Homo sapiens) [compound 67]”, the Peptide exchange result is “+++ (50%-75% = +++)”.
